Assay results as given in PMC8063937, “A Novel Cysteine Protease Inhibitor of Naegleria fowleri That Is Specifically Expressed during Encystation and at Mature Cysts” (Pathogens, 2021).

Tests used:
[1] = molecular target: recombinant cathepsin-B-like cysteine protease of N. fowleri (NfCBL) (Naegleria fowleri); test: enzyme inhibition assay (residual activity on a fluorogenic substrate); 10 nM enzyme incubated with 0-100 nM NfCPI in 50 mM sodium acetate pH 6.0, 20 min, RT; substrate Z-LR-MCA in 50 mM sodium acetate pH 5.0 with 10 mM DTT; Ki calculated from IC50 and Km, non-linear regression
papain = molecular target: T1, papain (UniProt P00784 134-345); test: as above; details: both partners purified
T1 construct: Papain, cysteine protease bought from Sigma; source: bought: Sigma
T1 sequence (looked up): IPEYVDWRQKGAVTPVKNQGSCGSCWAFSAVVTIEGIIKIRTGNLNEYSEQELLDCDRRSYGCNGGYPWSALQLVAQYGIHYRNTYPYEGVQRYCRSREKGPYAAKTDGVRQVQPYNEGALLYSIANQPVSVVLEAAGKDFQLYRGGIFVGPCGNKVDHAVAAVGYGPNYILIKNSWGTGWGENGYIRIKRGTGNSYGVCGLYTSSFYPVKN

[2] = molecular target: T2, recombinant cathepsin-B cysteine protease of N. fowleri (NfCB) (Naegleria fowleri); test: as above; details: both partners purified
T2 chain: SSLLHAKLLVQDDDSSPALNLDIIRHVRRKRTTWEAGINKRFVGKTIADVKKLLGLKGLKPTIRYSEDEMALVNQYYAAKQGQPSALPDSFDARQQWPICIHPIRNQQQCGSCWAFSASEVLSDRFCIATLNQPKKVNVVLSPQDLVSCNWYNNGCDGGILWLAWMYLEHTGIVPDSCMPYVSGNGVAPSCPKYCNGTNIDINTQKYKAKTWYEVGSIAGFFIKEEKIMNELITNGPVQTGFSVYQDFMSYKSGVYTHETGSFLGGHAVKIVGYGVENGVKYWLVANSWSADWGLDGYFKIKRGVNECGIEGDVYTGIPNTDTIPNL

[3] = molecular target: the molecule itself; test: non-reducing PAGE; purified NfCPI, with 0-10% SDS, without β-mercaptoethanol, with or without heating at 100 °C for 5 min

recombinant cysteine protease inhibitor of Naegleria fowleri (NfCPI), lacking the signal peptide (from UniProt A0A6A5BTM4 30-136) (natural protein)
Ki [1]: 144 pM

B1: recombinant cysteine protease inhibitor of Naegleria fowleri (NfCPI), lacking the signal peptide (natural protein)
chain: ALPIATNVIPGGRQPISNQTLIEELTTFIPKASSNGVCRVTRVLSAQQQVVAGTIYYLVVEVSTSCDATSSQTFCEKLKIFRPLVTRSVENPQLQLQKEQRVDCNTP
notes: ORF of 136 residues; the forward primer encodes LPIATNV as its first residues, the reverse primer ends at the stop codon; cDNA from strain Carter NF69 (ATCC 30215); also called recombinant NfCPI; source: E. coli M15 (pREP14), pQE-9, purified (Ni-NTA)
Ki (papain): 259 pM | Ki [2]: 193 pM | stoichiometry N [3]: 2
